From US10227575B2, “Multi-domain enzymes having cutinase activity, compositions comprising same and uses thereof” (OZYMES, priority 2015, dated 2019)
Like-named read-outs stand apart in the source and are kept apart here.

Legend:
[1] = Substrate range on p-NP esters, KrCUT versus KrCUT189; type: biochemical
Description: (§1) Esterase activity was determined by monitoring the formation of pNP at 410 nm from various pNP-esters using a Beckman UV spectrophotometer (model DU 640) (21). Substrates were dissolved in isopropanol and were added to 50 mM sodium phosphate buffer pH 8.0 to give 10% (v/v) total isopropanol concentration in a 1 mL reaction volume. pNP-butyrate was used at a final concentration of 1.2 mM. For pNP-caprylate, myristate and palmitate, the final concentration ranged from 0.1 to 0.5 mM. The reaction (1 mL) was started by adding an appropriate amount of enzyme. One enzyme unit (U) is defined as the amount of enzyme that produced 1 μmol of product (pNP) per min; specific activity is expressed as U/mg protein. A molar extinction coefficient of 15 mM^−1 cm^−1 for pNP is used for calculating enzyme activity.

[2] = Degradation of poly(1,3-propylene adipate); details: 2.5 μM, after 24 hours
[3] = KrCUT activity in the presence of chelating agents; type: biochemical
[4] = Stability of KrCUT in stabilisation buffer; type: physicochemical
Description: For stability testing, culture medium showing KrCUT activity, and containing 100 mg total protein was used. Stabilisation buffer composed of sodium gluconate 1-5%, sodium carbonate 1-5%, sodium citrate 1-5% and propylene glycol 1-5% was prepared; 50 mL enzyme solution was added to 200 mL of buffer and stored at room temperature, after mixing. Samples were taken at defined time periods and the enzymatic activity was measured using p-nitrophenyl dodecanoate as substrate.

[5] = Potential inhibitors of cutinase activity; type: biochemical
Description: as §1
KrCUT cutinase activity was assayed as described in Example 1, section 1.6 in the presence of various chemicals using p-NP palmitate as substrate under standard assay conditions. […] Cu^2+ at 1.0 mM had little effect. The enzyme was not affected by the metal-chelating agent EDTA even at 10 mM. The anionic surfactant SDS was a strong inhibitor of cutinase even at 0.01% retaining only 28% activity. […] Dimethylsulfoxide (at 30%) and dimethylformide (at 5%) inhibited cutinase activity by about 70%.

[6] = Polymer binding test, cellulose
Description: Different polymers (cellulose, PLA, PCL, and PHB) were tested to evaluate the ability of KrCUT and KrCUT189 to bind these materials. Binding assays for PCL and PLA could not be performed since both polymers were degraded by the enzymes.

[7] = Description: Molar masses of the samples were determined with universal calibration with the refractive index detector and the viscosity detector. The universal calibration curve was based on polystyrene standards [Polymer Laboratories (Amherst, Mass.) and Aldrich (Oakville, ON)] using the molar masses determined by the manufacturer and the intrinsic viscosities measured by the apparatus. The software OmniSEC™ software from Viscotek was used for data collection and calibration. Separation in THF was performed by injecting 100 μL of 1.5-2 mg/mL solutions of standards or samples into thermostatically controlled SuperRes™ columns [35° C.; PAS-102, PAS102.5, PAS-103L, each 300 mm×8 mm; PolyAnalytik (London, ON)]. The flow rate was 1 mL/min.
Alternatively, a thin film was prepared from 1 g of commercial available PCL pellets and used for degradation. The polymer was dissolved in dichloromethane in a 1 L beaker. The solvent was allowed to evaporate overnight and the resulting film dried to constant weight under reduced pressure. Prior to enzymatic treatment the film was cut into pieces (20 mg) of approximately 1.5 cm×1.5 cm and thickness of approximately 0.1 mm. The reaction mixture was monitored by HPLC and SEC as described above.
To quantify this further, pellets of polycaprolactone (PCL) as well as films of PCL were incubated with KrCUT at various enzyme concentrations (1.25 μM, 2.5 μM, and 5 μM representing 4.7, 9.5 and 19 enzyme Units) at 37° C. The degradation of the polymer was followed over time by analyzing aliquots of the reaction mixture by HPLC for the detection of the released monomer (6-hydroxyhexanoic acid) and characterization of the remaining polymer by SEC after lypholization of the sample.

B1: KrCUT: mature Kineococcus radiotolerans cutinase, amino acids 34-294 of SEQ ID NO: 1; SEQ ID NO: 6 (protein)
chain: ATCSDVDVVFARGTGETPGLGVVGGPFVRSLTGELSDRTVTSHAVDYAASSSQASAGPGATAMSAHVREVAAACPSTRFVLGGYSQGATVTDIALGIRTGTTTGTPVPAELAGRVAAVVVFGNPLGLSGRTIATASSTYGPKSKDYCNSSDSVCGSAPKTGTGGHLSYASNGSTTDGARFAAGLVRAAGTPTTPTPTPTPTPVPTTCVRDSTRDHVAADRAVSLYGRAYARGSRDSLGATSSYNVVSLQQVEGGWRLVTAC
modifications: Kineococcus radiotolerans; (1)..(261) KrCUT (lacking residues 1-33 of ssKrCUT)
activity towards pNB-acetate [1]: little activity | fold higher activity with pNP butyrate over pNP-palmitate [1]: 8 fold | substrate giving the highest activity ([1]; p-NP esters): pNP butyrate | adipic acid found in the reaction mixture [2]: 12% | effect of EDTA on KrCUT activity ([3]; EDTA 10% w/v): does not inhibit | activity retained in the presence of GLDA ([3]; GLDA 5% w/v): 100% | initial activity present ([4]; 9 months at room temperature): up to 65% | time after which activity loss could be observed ([4]; room temperature): 4 months | effect of para-chloromercuribenzoate ([5]; 0.01 to 1 mM): no discernible effect | effect of 2-propanol ([5]; 2-propanol exceeding 15%): strongly reduces enzyme activity | effect of Cu2+ ([5]; Cu2+ 1.0 mM): little effect | effect of EDTA ([5]; EDTA 10 mM): not affected | enzyme inhibition by Fe2+ ([5]; Fe2+ 1 mM): 50% | enzyme inhibition by Mg2+ ([5]; Mg2+ 10 mM): 19% | activity retained with SDS ([5]; SDS 0.01%): 28% | effect of SDS ([5]; SDS 0.1%): complete loss of activity | effect of alcohols ([5]; concentration above 15-20%): strong inhibiting effect | inhibition by dimethylformide ([5]; dimethylformide 5%): about 70% | inhibition by dimethylsulfoxide ([5]; dimethylsulfoxide 30%): about 70% | loss of activity by zinc ion ([5]; zinc ion 0.1 mM): over 90% | effect of zinc ion on cutinase activity ([5]; zinc ion 1 mM): complete loss of activity | binding to cellulose [6]: did not bind | polymer peak in SEC ([7]; 2.5-5 μM, 24 hours): complete disappearance of the polymer | 6-hydroxy hexanoic acid from PCL pellets, % of the maximum yield ([7]; PCL pellets, 2.5 μM protein, 24 hours): 18% | degradation of thin films of PCL ([7]; enzyme 1.25 μM, 24 hours): nearly completely degraded | acidic monomers released from PCL ([7]; enzyme 2.5 or 5 μM, 6 hours, 37° C.): ~90% | Mn of remaining PCL ([7]; time 0 h): 44000 Daltons | Mw of remaining PCL ([7]; time 0 h): 63300 Daltons | PCL (SEC) ([7]; time 0 h): 100% | acid (HPLC) ([7]; time 0 h): 0% | Mn of remaining PCL ([7]; time 1 h): 53800 Daltons | Mw of remaining PCL ([7]; time 1 h): 64400 Daltons | PCL (SEC) ([7]; time 1 h): 61% | acid (HPLC) ([7]; time 1 h): 28% | Mn of remaining PCL ([7]; time 3 h): 55000 Daltons | Mw of remaining PCL ([7]; time 3 h): 66600 Daltons | PCL (SEC) ([7]; time 3 h): 27% | acid (HPLC) ([7]; time 3 h): 60% | Mn of remaining PCL ([7]; time 6 h): 58200 Daltons | Mw of remaining PCL ([7]; time 6 h): 68100 Daltons | PCL (SEC) ([7]; time 6 h): 12% | acid (HPLC) ([7]; time 6 h): 85% | Mn of remaining PCL ([7]; time 24 h): 69500 Daltons | Mw of remaining PCL ([7]; time 24 h): 74000 Daltons | PCL (SEC) ([7]; time 24 h): 0.3% | acid (HPLC) ([7]; time 24 h): 100%
